T1: DVL3, Q92997
T1 sequence (Q92997 244-331, limits assumed, looked up): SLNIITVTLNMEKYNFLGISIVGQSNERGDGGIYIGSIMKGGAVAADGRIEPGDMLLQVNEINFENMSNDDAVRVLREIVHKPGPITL

T2: APBA1_1, Q02410
T2 sequence (Q02410 651-752, limits assumed, looked up): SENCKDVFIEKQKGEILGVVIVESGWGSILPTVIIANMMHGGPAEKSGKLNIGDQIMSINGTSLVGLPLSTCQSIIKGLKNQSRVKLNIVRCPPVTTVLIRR

T3: LIN7C, Q9NUP9
T3 sequence (Q9NUP9 88-185, limits assumed, looked up): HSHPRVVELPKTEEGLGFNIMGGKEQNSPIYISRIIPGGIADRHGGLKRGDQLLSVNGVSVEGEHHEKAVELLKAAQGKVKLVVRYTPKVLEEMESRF

T4: PDZD2_2, O15018
T4 sequence (O15018 329-429, limits assumed, looked up): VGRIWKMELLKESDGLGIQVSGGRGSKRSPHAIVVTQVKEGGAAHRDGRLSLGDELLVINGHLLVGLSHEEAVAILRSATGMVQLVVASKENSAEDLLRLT

T5: SNTG1, Q9NSN8
T5 sequence (Q9NSN8 52-150, limits assumed, looked up): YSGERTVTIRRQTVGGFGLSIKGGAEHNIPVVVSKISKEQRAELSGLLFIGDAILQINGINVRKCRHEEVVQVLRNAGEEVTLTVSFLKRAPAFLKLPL

T6: MPDZ_12, O75970
T6 sequence (O75970 1857-1958, limits assumed, looked up): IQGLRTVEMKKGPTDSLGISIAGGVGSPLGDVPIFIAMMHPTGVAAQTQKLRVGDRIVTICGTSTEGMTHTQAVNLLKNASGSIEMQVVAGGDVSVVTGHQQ

T7: LNX2_3, Q8N448
T7 sequence (Q8N448 463-564, limits assumed, looked up): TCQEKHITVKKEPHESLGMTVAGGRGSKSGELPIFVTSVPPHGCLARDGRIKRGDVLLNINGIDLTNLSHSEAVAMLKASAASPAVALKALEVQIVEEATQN

T8: APBA1_2, Q02410
T8 sequence (Q02410 742-832, limits assumed, looked up): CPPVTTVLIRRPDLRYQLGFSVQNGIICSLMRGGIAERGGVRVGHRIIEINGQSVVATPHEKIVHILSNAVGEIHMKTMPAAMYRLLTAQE

T9: GRIP1_5, Q9Y3R0
T9 sequence (Q9Y3R0 568-668, limits assumed, looked up): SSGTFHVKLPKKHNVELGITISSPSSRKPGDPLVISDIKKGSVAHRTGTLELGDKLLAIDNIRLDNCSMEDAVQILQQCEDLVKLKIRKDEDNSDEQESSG

T10: SNTG2, Q9NY99
T10 sequence (Q9NY99 68-166, limits assumed, looked up): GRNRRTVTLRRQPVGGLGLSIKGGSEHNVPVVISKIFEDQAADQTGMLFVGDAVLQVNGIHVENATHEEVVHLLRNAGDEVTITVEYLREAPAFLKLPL

T11: NHERF3_4, Q5T2W1
T11 sequence (Q5T2W1 373-468, limits assumed, looked up): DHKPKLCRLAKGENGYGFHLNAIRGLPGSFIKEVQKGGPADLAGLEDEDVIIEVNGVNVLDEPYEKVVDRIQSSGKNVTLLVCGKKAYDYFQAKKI


Legend:
Assay in all cases: holdup assay
Design in all cases: key: below the threshold = too weak to quantify, mostly under pKd 3.1 to 4
Conditions in all cases: plain residues with an end cap or a label only (N-terminal biotin on a linker: ado-ado)
IL16_3, Q14005 = molecular target: IL16_3, Q14005
DVL3, Q92997 = molecular target: T1, DVL3, Q92997
LIMK2, P53671 = molecular target: LIMK2, P53671
APBA1_1, Q02410 = molecular target: T2, APBA1_1, Q02410
LIN7C, Q9NUP9 = molecular target: T3, LIN7C, Q9NUP9
MAST2, Q6P0Q8 = molecular target: MAST2, Q6P0Q8
GRIP2_7, Q9C0E4 = molecular target: GRIP2_7, Q9C0E4
FRMPD2_1, Q68DX3 = molecular target: FRMPD2_1, Q68DX3
PDZD2_2, O15018 = molecular target: T4, PDZD2_2, O15018
SNTG1, Q9NSN8 = molecular target: T5, SNTG1, Q9NSN8
NHERF4_4, Q86UT5 = molecular target: NHERF4_4, Q86UT5
DLG4_1, P78352 = molecular target: DLG4_1, P78352
MPDZ_12, O75970 = molecular target: T6, MPDZ_12, O75970
LNX2_3, Q8N448 = molecular target: T7, LNX2_3, Q8N448
APBA1_2, Q02410 = molecular target: T8, APBA1_2, Q02410
GORASP2, Q9H8Y8 = molecular target: GORASP2, Q9H8Y8
GRIP1_5, Q9Y3R0 = molecular target: T9, GRIP1_5, Q9Y3R0
Inadl_8, Q8NI35 = molecular target: Inadl_8, Q8NI35
PTPN3, P26045 = molecular target: PTPN3, P26045
SNTG2, Q9NY99 = molecular target: T10, SNTG2, Q9NY99
Inadl_10, Q8NI35 = molecular target: Inadl_10, Q8NI35
NHERF3_4, Q5T2W1 = molecular target: T11, NHERF3_4, Q5T2W1
GIPC2, Q8TF65 = molecular target: GIPC2, Q8TF65
SCRIB_2, Q14160 = molecular target: SCRIB_2, Q14160
GRIP2_4, Q9C0E4 = molecular target: GRIP2_4, Q9C0E4
DLG4_3, P78352 = molecular target: DLG4_3, P78352
DLG1_1, Q12959 = molecular target: DLG1_1, Q12959

GRIP2_7, Q9C0E4, sequence (Q9C0E4 934-1023): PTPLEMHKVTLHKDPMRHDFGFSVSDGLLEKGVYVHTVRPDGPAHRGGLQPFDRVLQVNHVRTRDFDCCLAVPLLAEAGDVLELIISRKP
MAST2, Q6P0Q8, sequence (Q6P0Q8 1099-1202): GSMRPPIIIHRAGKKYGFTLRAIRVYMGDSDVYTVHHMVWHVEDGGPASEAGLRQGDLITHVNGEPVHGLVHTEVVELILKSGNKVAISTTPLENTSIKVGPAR
FRMPD2_1, Q68DX3, sequence (Q68DX3 770-861): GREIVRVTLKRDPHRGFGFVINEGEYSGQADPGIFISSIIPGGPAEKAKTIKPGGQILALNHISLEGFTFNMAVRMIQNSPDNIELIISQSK
SCRIB_2, Q14160, sequence (Q14160 857-960): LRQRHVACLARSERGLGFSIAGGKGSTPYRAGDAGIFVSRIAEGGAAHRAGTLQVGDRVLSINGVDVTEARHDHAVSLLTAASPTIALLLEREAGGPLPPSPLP
IL16_3, Q14005, sequence (Q14005 1107-1207): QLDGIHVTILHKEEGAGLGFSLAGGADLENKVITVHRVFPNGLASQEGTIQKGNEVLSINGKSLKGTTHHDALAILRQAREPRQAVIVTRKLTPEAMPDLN
DLG4_1, P78352, sequence (P78352 62-152): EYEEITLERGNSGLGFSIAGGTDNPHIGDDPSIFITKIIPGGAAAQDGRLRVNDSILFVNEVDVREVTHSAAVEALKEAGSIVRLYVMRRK
LIMK2, P53671, sequence (P53671 143-248): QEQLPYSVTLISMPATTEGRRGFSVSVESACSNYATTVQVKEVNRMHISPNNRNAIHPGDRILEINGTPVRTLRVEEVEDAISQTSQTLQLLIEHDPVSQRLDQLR
Inadl_10, Q8NI35, sequence (Q8NI35 1673-1763): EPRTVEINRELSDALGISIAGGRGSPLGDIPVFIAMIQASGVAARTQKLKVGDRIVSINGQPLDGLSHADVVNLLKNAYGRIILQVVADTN
NHERF4_4, Q86UT5, sequence (Q86UT5 464-550): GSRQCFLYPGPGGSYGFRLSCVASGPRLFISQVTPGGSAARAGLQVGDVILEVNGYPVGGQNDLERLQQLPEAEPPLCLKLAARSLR
GRIP2_4, Q9C0E4, sequence (Q9C0E4 446-548): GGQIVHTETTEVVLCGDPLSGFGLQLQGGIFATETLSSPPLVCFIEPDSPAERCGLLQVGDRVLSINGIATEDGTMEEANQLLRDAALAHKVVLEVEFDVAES
GIPC2, Q8TF65, sequence (Q8TF65 112-203): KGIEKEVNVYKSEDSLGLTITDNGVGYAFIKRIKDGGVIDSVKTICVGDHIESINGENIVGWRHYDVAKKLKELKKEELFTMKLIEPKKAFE
PTPN3, P26045, sequence (P26045 505-587): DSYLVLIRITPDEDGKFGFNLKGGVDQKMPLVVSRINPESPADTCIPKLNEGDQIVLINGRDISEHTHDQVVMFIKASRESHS
DLG4_3, P78352, sequence (P78352 306-403): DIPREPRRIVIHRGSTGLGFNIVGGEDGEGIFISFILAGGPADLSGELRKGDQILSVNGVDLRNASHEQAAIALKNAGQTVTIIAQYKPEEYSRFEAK
Inadl_8, Q8NI35, sequence (Q8NI35 1425-1530): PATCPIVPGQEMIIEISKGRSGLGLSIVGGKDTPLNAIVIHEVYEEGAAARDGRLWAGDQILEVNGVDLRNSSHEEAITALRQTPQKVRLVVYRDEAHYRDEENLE

pKd (IL16_3, Q14005)	pKd (DVL3, Q92997)	pKd (LIMK2, P53671)	pKd (APBA1_1, Q02410)	pKd (LIN7C, Q9NUP9)	pKd (MAST2, Q6P0Q8)	pKd (GRIP2_7, Q9C0E4)	pKd (FRMPD2_1, Q68DX3)	pKd (PDZD2_2, O15018)	pKd (SNTG1, Q9NSN8)	pKd (NHERF4_4, Q86UT5)	pKd (DLG4_1, P78352)	pKd (MPDZ_12, O75970)	pKd (LNX2_3, Q8N448)	pKd (APBA1_2, Q02410)	pKd (GORASP2, Q9H8Y8)	pKd (GRIP1_5, Q9Y3R0)	pKd (Inadl_8, Q8NI35)	pKd (PTPN3, P26045)	pKd (SNTG2, Q9NY99)	Binder	further results
below the threshold	4.51	below the threshold	below the threshold	below the threshold	4.44	5.62	4.22	5.02	3.51	below the threshold	below the threshold	below the threshold	below the threshold	3.82	4.67	below the threshold	3.66	3.96	3.49	SFISKKEWYV [NECTIN1, Q15223]	pKd (Inadl_10, Q8NI35): below the threshold; pKd (NHERF3_4, Q5T2W1): below the threshold; pKd (GIPC2, Q8TF65): below the threshold; pKd (SCRIB_2, Q14160): below the threshold; pKd (GRIP2_4, Q9C0E4): below the threshold; pKd (DLG4_3, P78352): below the threshold; pKd (DLG1_1, Q12959): 3.6
below the threshold	below the threshold	below the threshold	below the threshold	below the threshold	4.32	below the threshold	below the threshold	4.29	below the threshold	below the threshold	below the threshold	3.48	below the threshold	below the threshold	below the threshold	below the threshold	3.77	3.54	below the threshold	AEASVACSLC [PTGIR, P43119]	pKd (Inadl_10, Q8NI35): below the threshold; pKd (NHERF3_4, Q5T2W1): below the threshold; pKd (GIPC2, Q8TF65): 3.75; pKd (SCRIB_2, Q14160): below the threshold; pKd (GRIP2_4, Q9C0E4): below the threshold; pKd (DLG4_3, P78352): below the threshold; pKd (DLG1_1, Q12959): below the threshold
